# From patent US20220186239A1 (NINGBO UNIVERSITY, published 2022)
# B1: BD-Lam (other)
# chain: MKLLSSIEQACDICRLKKLKCSKEKPKCAKCLKNNWECRYSPKTKRSPLTRAHLTEVESRLERLEQLFLLIFPREDLDMILKMDSLQDIKALLTGLFVQDNVNKDAVTDRLASVETDMPLTLRQHRISATSSSEESSNKGQRQLTVSSEEVVSREVSGIKAAYEAELGDARKTLDSVAKERARLQLELSKVREEFKELKARNTKKEGDLIAAQARLKDLEALLNSKEAALSTALSEKRTLEGELHDLRGQVAKLEAALGEAKKQLQDEMLRRVDAENRLQTMKEELDFQKNIYSEELRETKRRHETRLVEID
# notes: Commercial Y2H negative control bait; also called negative control bait
# Biological target: T1, AD-T (UniProt P03070 87-708)
# T1 construct: Commercial Y2H control prey; also called control prey
# Test: yeast two-hybrid in Y2H Gold; growth on QDO and colour on QDO/X/A
binder,measurement,value
B1,binding result,no binding
